The target of test [1] is T1, SARS-CoV-2 S-RBD (residues 330 to 530) (SARS-CoV-2, UniProt P0DTC2 330-530). The experiment in a line: SPR. In general terms: SPR reads the build-up and loss of mass on a sensor chip optically.
Test [2] deals with T1, SARS-CoV-2 S-RBD (residues 330 to 530). The experiment in a line: SPR. This is another data set of the same source.

B1: Rhinolophus pusillus bat ACE2 ectodomain (residues 18 to 615) (domain or fragment)
chain: QSITEDKAKKFLNDFNSEAEDLSYQSSLASWDYNTNISDENVQKMDEAGAKWSAFYEEQSKIAKNYPLEEIQTDIVKRQLQILQQSGSPVLSEDKSKRLNSILNAMSTIYSTGKVCKPNNPQECLLLEPGLDNIMGTSKDYHERLWAWEGWRAEVGKQLRPLYEEYVVLKNEMARGYHYEDYGDYWRRDYETEESSGPGYSRDQLMKDVDRIFTEIKPLYEHLHAYVRAKLMDTYPLHISPTGCLPAHLLGDMWGRFWTNLYPLTVPFGQKPNIDVTDEMVKQGWDANRIFKEAEKFFVSVGLPNMTEGFWNNSMLTEPGDGRKVVCHPTAWDLGKGDFRIKMCTKVTMEDFLTAHHEMGHIQYDMAYASQPYLLRNGANEGFHEAVGEVMSLSVATPKHLKTMGLLSPDFREDDETEINFLLKQALNIVGTLPFTYMLEKWRWMVFKGEIPKEEWMKKWWEMKREIVGVVEPVPHDETYCDPASLFHVANDYSFIRYYTRTIFEFQFHEALCRIAQHNGPLHKCDISNSTDAGKKLHQMLSVGKSQAWTKTLEDIVGSRNMDVGPLLRYFKPLYTWLQEQSRKSYVGWNTDWSPYSD
In general, Kd refers to the concentration at which binding is half-saturated. As usually defined, the koff is the rate constant with which the complex falls apart. In test [1], B1 registered an equilibrium dissociation constant (Kd) of 45.3 nM. In test [2], this molecule returned a dissociation rate constant (koff) of 0.00152 s⁻¹.

Values taken from article PMC12363188 (2025).
